# From the supplement of paper PMC12458215
# ± gives the uncertainty stated by the source.
# Test system: HEK293T
# Assay: plasma membrane surface immunostaining intensity (anti-HA, deep receptor scanning) (arbitrary fluorescence units); higher = higher plasma membrane expression
# Details: GPCR class: A
row,Sequence,plasma membrane surface immunostaining intensity
1,MVLEVSDHQVLNDAEVAALLENFSSSYDYGENESDSCCTSPPCPQDFSLNFDRAFLPALYSLLFLLGLLGNGAVAAVLLSRRTALSSTDTFLLHLAVADTLLVLTLPLWAVDAAVQWVFGSGLCKVAGALFNINFYAGALLLACISFDRYLNIVHATQLYRRGPPARVTLTCLAVWGLCLLFALPDFIFLSAHHDERLNATHCQYNFPQVGRTALRVLQLVAGFLLPLLVMAYCYAHILAVLLVSRGQRRLRAMRLVVVVVVAFALCWTPYHLVVLVDILMDLGALARNCGRESRVDVAKSVTSGLGYMHCCLNPLLYAFVGVKFRERMWMLLLRLGCPNQRGLQRQPSSSRRDSSWSETSEASYSGL [CXCR3],530 ± 49
2,MDPEETSVYLDYYYATSPNSDIRETHSHVPYTSVFLPVFYTAVFLTGVLGNLVLMGALHFKPGSRRLIDIFIINLAASDFIFLVTLPLWVDKEASLGLWRTGSFLCKGSSYMISVNMHCSVLLLTCMSVDRYLAIVWPVVSRKFRRTDCAYVVCASIWFISCLLGLPTLLSRELTLIDDKPYCAEKKATPIKLIWSLVALIFTFFVPLLSIVTCYCCIARKLCAHYQQSGKHNKKLKKSIKIIFIVVAAFLVSWLPFNTFKFLAIVSGLRQEHYLPSAILQLGMEVSGPLAFANSCVNPFIYYIFDSYIRRAIVHCLCPCLKNYDFGSSTETSDSHLTKALSTFIHAEDFARRRKRSVSL [GPR15],342 ± 19
3,MTSTCTNSTRESNSSHTCMPLSKMPISLAHGIIRSTVLVIFLAASFVGNIVLALVLQRKPQLLQVTNRFIFNLLVTDLLQISLVAPWVVATSVPLFWPLNSHFCTALVSLTHLFAFASVNTIVVVSVDRYLSIIHPLSYPSKMTQRRGYLLLYGTWIVAILQSTPPLYGWGQAAFDERNALCSMIWGASPSYTILSVVSFIVIPLIVMIACYSVVFCAARRQHALLYNVKRHSLEVRVKDCVENEDEEGAEKKEEFQDESEFRRQHEGEVKAKEGRMEAKDGSLKAKEGSTGTSESSVEARGSEEVRESSTVASDGSMEGKEGSTKVEENSMKADKGRTEVNQCSIDLGEDDMEFGEDDINFSEDDVEAVNIPESLPPSRRNSNSNPPLPRCYQCKAAKVIFIIIFSYVLSLGPYCFLAVLAVWVDVETQVPQWVITIIIWLFFLQCCIHPYVYGYMHKTIKKEIQDMLKKFFCKEKPPKEDSHPDLPGTEGGTEGKIVPSYDSATFP [GPR101],3010 ± 110
4,METNSSLPTNISGGTPAVSAGYLFLDIITYLVFAVTFVLGVLGNGLVIWVAGFRMTHTVTTISYLNLAVADFCFTSTLPFFMVRKAMGGHWPFGWFLCKFVFTIVDINLFGSVFLIALIALDRCVCVLHPVWTQNHRTVSLAKKVIIGPWVMALLLTLPVIIRVTTVPGKTGTVACTFNFSPWTNDPKERINVAVAMLTVRGIIRFIIGFSAPMSIVAVSYGLIATKIHKQGLIKSSRPLRVLSFVAAAFFLCWSPYQVVALIATVRIRELLQGMYKEIGIAVDVTSALAFFNSCLNPMLYVFMGQDFRERLIHALPASLERALTEDSTQTSDTATNSTLPSAEVELQAK [FPR1],6448 ± 46
5,MEEGGDFDNYYGADNQSECEYTDWKSSGALIPAIYMLVFLLGTTGNGLVLWTVFRSSREKRRSADIFIASLAVADLTFVVTLPLWATYTYRDYDWPFGTFFCKLSSYLIFVNMYASVFCLTGLSFDRYLAIVRPVANARLRLRVSGAVATAVLWVLAALLAMPVMVLRTTGDLENTTKVQCYMDYSMVATVSSEWAWEVGLGVSSTTVGFVVPFTIMLTCYFFIAQTIAGHFRKERIEGLRKRRRLLSIIVVLVVTFALCWMPYHLVKTLYMLGSLLHWPCDFDLFLMNIFPYCTCISYVNSCLNPFLYAFFDPRFRQACTSMLCCGQSRCAGTSHSSSGEKSASYSSGHSQGPGPNMGKGGEQMHEKSIPYSQETLVVD [APLNR],6400 ± 84
6,MALTPESPSSFPGLAATGSSVPEPPGGPNATLNSSWASPTEPSSLEDLVATGTIGTLLSAMGVVGVVGNAYTLVVTCRSLRAVASMYVYVVNLALADLLYLLSIPFIVATYVTKEWHFGDVGCRVLFGLDFLTMHASIFTLTVMSSERYAAVLRPLDTVQRPKGYRKLLALGTWLLALLLTLPVMLAMRLVRRGPKSLCLPAWGPRAHRAYLTLLFATSIAGPGLLIGLLYARLARAYRRSQRASFKRARRPGARALRLVLGIVLLFWACFLPFWLWQLLAQYHQAPLAPRTARIVNYLTTCLTYGNSCANPFLYTLLTRNYRDHLRGRVRGPGSGGGRGPVPSLQPRARFQRCSGRSLSSCSPQPTDSLVLAPAAPARPAPEGPRAPA [UTS2R],2430 ± 120
7,MTTSLDTVETFGTTSYYDDVGLLCEKADTRALMAQFVPPLYSLVFTVGLLGNVVVVMILIKYRRLRIMTNIYLLNLAISDLLFLVTLPFWIHYVRGHNWVFGHGMCKLLSGFYHTGLYSEIFFIILLTIDRYLAIVHAVFALRARTVTFGVITSIVTWGLAVLAALPEFIFYETEELFEETLCSALYPEDTVYSWRHFHTLRMTIFCLVLPLLVMAICYTGIIKTLLRCPSKKKYKAIRLIFVIMAVFFIFWTPYNVAILLSSYQSILFGNDCERSKHLDLVMLVTEVIAYSHCCMNPVIYAFVGERFRKYLRHFFHRHLLMHLGRYIPFLPSEKLERTSSVSPSTAEPELSIVF [CCR3],391 ± 99

# Same assay, conditions: GPCR class: A (Olfactory)
row,Sequence,plasma membrane surface immunostaining intensity
1,MGKENCTTVAEFILLGLSDVPELRVCLFLLFLLIYGVTLLANLGMIALIQVSSRLHTPMYFFLSHLSSVDFCYSSIIVPKMLANIFNKDKAISFLGCMVQFYLFCTCVVTEVFLLAVMAYDRFVAICNPLLYTVTMSWKVRVELASCCYFCGTVCSLIHLCLALRIPFYRSNVINHFFCDLPPVLSLACSDITVNETLLFLVATLNESVTIMIILTSYLLILTTILKMGSAEGRHKAFSTCASHLTAITVFHGTVLSIYCRPSSGNSGDADKVATVFYTVVIPMLNSVIYSLRNKDVKEALRKVMGSKIHS [OR5L1],145 ± 28
2,MFLYLCFIFQRTCSEEMEEENATLLTEFVLTGFLHQPDCKIPLFLAFLVIYLITIMGNLGLIVLIWKDPHLHIPMYLFLGSLAFVDASLSSTVTPKMLINFLAKSKMISLSECMVQFFSLVTTVTTECFLLATMAYDRYVAICKALLYPVIMTNELCIQLLVLSFIGGLLHALIHEAFSFRLTFCNSNIIQHFYCDIIPLLKISCTDSSINFLMVFIFAGSVQVFTIGTILISYTIILFTILEKKSIKGIRKAVSTCGAHLLSVSLYYGPLTFKYLGSASPQADDQDMMESLFYTVIVPLLNPMIYSLRNKQVIASFTKMFKSNV [OR5H6],123 ± 24
3,MASTSNVTELIFTGLFQDPAVQSVCFVVFLPVYLATVVGNGLIVLTVSISKSLDSPMYFFLSCLSLVEISYSSTIAPKFIIDLLAKIKTISLEGCLTQIFFFHFFGVAEILLIVVMAYDCYVAICKPLHYMNIISRQLCHLLVAGSWLGGFCHSIIQILVIIQLPFCGPNVIDHYFCDLQPLFKLACTDTFMEGVIVLANSGLFSVFSFLILVSSYIVILVNLRNHSAEGRHKALSTCASHITVVILFFGPAIFLYMRPSSTFTEDKLVAVFYTVITPMLNPIIYTLRNAEVKIAIRRLWSKKENPGRE [OR4B1],131 ± 38
4,MVNQSSTPGFLLLGFSEHPGLERTLFVVVLTSYLLTLVGNTLIILLSALDPKLHSPMYFFLSNLSFLDLCFTTSCVPQMLVNLWGPKKTISFLDCSVQIFIFLSLGTTECILLTVMAFDRYVAVCQPLHYATIIHPRLCWQLASVAWVIGLVESVVQTPSTLHLPFCPDRQVDDFVCEVPALIRLSCEDTSYNEIQVAVASVFILVVPLSLILVSYGAITWAVLRINSAKGRRKAFGTCSSHLTVVTLFYSSVIAVYLQPKNPYAQERGKFFGLFYAVGTPSLNPLIYTLRNKEVTRAFRRLLGKEMGLTQS [OR2H2],145 ± 10
5,MLGLNHTSMSEFILVGFSAFPHLQLMLFLLFLLMYLFTLLGNLLIMATVWSERSLHTPMYLFLCVLSVSEILYTVAIIPRMLADLLSTQRSIAFLACASQMFFSFSFGFTHSFLLTVMGYDRYVAICHPLRYNVLMSPRGCACLVGCSWAGGSVMGMVVTSAIFQLTFCGSHEIQHFLCHVPPLLKLACGNNVPAVALGVGLVCIMALLGCFLLILLSYAFIVADILKIPSAEGRNKAFSTCASHLIVVIVHYGFASVIYLKPKGPHSQEGDTLMATTYAVLTPFLSPIIFSLRNKELKVAMKRTFLSTLYSSGT [OR10H2],112 ± 22
6,MGDNITSITEFLLLGFPVGPRIQMLLFGLFSLFYVFTLLGNGTILGLISLDSRLHAPMYFFLSHLAVVDIAYACNTVPRMLVNLLHPAKPISFAGRMMQTFLFSTFAVTECLLLVVMSYDLYVAICHPLRYLAIMTWRVCITLAVTSWTTGVLLSLIHLVLLLPLPFCRPQKIYHFFCEILAVLKLACADTHINENMVLAGAISGLVGPLSTIVVSYMCILCAILQIQSREVQRKAFCTCFSHLCVIGLFYGTAIIMYVGPRYGNPKEQKKYLLLFHSLFNPMLNPLICSLRNSEVKNTLKRVLGVERAL [OR2A7],117 ± 27
7,MANITRMANHTGRLDFILMGLFRQSKHPALLSVVIFVVFLKALSGNAVLILLIHCDAHLHSPMYFFISQLSLMDMAYISVTVPKMLLDQVMGVNKVSAPECGMQMFLYLTLAGSEFFLLATMAYDRYVAICHPLRYPVLMNHRVCLFLASGCWFLGSVDGFMLTPITMSFPFCRSWEIHHFFCEVPAVTILSCSDTSLYETLMYLCCVLMLLIPVTIISSSYLLILLTVHRMNSAEGRKKAFATCSSHLTVVILFYGAAVYTYMLPSSYHTPEKDMMVSVFYTILTPVLNPLIYSLRNKDVMGALKKMLTVRFVL [OR2T29],131 ± 21

# Same assay, conditions: GPCR class: B
row,Sequence,plasma membrane surface immunostaining intensity
1,MKLGSSRAGPGRGSAGLLPGVHELPMGIPAPWGTSPLSFHRKCSLWAPGRPFLTLVLLVSIKQVTGSLLEETTRKWAQYKQACLRDLLKEPSGIFCNGTFDQYVCWPHSSPGNVSVPCPSYLPWWSEESSGRAYRHCLAQGTWQTIENATDIWQDDSECSENHSFKQNVDRYALLSTLQLMYTVGYSFSLISLFLALTLLLFLRKLHCTRNYIHMNLFASFILRTLAVLVKDVVFYNSYSKRPDNENGWMSYLSEMSTSCRSVQVLLHYFVGANYLWLLVEGLYLHTLLEPTVLPERRLWPRYLLLGWAFPVLFVVPWGFARAHLENTGCWTTNGNKKIWWIIRGPMMLCVTVNFFIFLKILKLLISKLKAHQMCFRDYKYRLAKSTLVLIPLLGVHEILFSFITDDQVEGFAKLIRLFIQLTLSSFHGFLVALQYGFANGEVKAELRKYWVRFLLARHSGCRACVLGKDFRFLGKCPKKLSEGDGAEKLRKLQPSLNSGRLLHLAMRGLGELGAQPQQDHARWPRGSSLSECSEGDVTMANTMEEILEESEI [GLP2R],121 ± 21

# Same assay, conditions: GPCR class: F
row,Sequence,plasma membrane surface immunostaining intensity
1,MAVAPLRGALLLWQLLAAGGAALEIGRFDPERGRGAAPCQAVEIPMCRGIGYNLTRMPNLLGHTSQGEAAAELAEFAPLVQYGCHSHLRFFLCSLYAPMCTDQVSTPIPACRPMCEQARLRCAPIMEQFNFGWPDSLDCARLPTRNDPHALCMEAPENATAGPAEPHKGLGMLPVAPRPARPPGDLGPGAGGSGTCENPEKFQYVEKSRSCAPRCGPGVEVFWSRRDKDFALVWMAVWSALCFFSTAFTVLTFLLEPHRFQYPERPIIFLSMCYNVYSLAFLIRAVAGAQSVACDQEAGALYVIQEGLENTGCTLVFLLLYYFGMASSLWWVVLTLTWFLAAGKKWGHEAIEAHGSYFHMAAWGLPALKTIVILTLRKVAGDELTGLCYVASTDAAALTGFVLVPLSGYLVLGSSFLLTGFVALFHIRKIMKTGGTNTEKLEKLMVKIGVFSILYTVPATCVIVCYVYERLNMDFWRLRATEQPCAAAAGPGGRRDCSLPGGSVPTVAVFMLKIFMSLVVGITSGVWVWSSKTFQTWQSLCYRKIAAGRARAKACRAPGSYGRGTHCHYKAPTVVLHMTKTDPSLENPTHL [FZD9],1560 ± 410
